From publication PMC6415414

Details: N-glycosylation at N74

Substance | stability_or_folding | enzymatic_activity
Candida antarctica lipase B (CaLB): Asn74Ala (CaLB-degl and CaLB-degl-lid), residual activity after 10 min heat incubation | decreases, >50% activity lost at 48 °C and almost inactive at 58 °C, vs 42% relative activity at 58 °C for wt | 
Candida antarctica lipase B (CaLB): Asn74Ala (CaLB-degl), purified free enzyme, pNPB assay |  | decreases, hydrolytic activity 10.49 to 7.57 µmol(min∙mg)−1
Candida antarctica lipase B (CaLB): Asn74Ala (CaLB-degl), ε-caprolactone polymerization in aqueous toluene |  | increases, Free enzyme: Mn 1100 to 1900 Da, Coligo 13% to 29% (factor 1.7). Immobilized: Mn 5200 to 6700 Da, Coligo 86% to 91%.
Candida antarctica lipase B (CaLB): Asn74Ala, S. cerevisiae MTP culture supernatant, pNPB assay |  | no change, 94% relative hydrolytic activity
Candida antarctica lipase B (CaLB): Asn74Ser, S. cerevisiae MTP culture supernatant, pNPB assay |  | decreases
